Laboratory results published in patent US20230279118A1 (published 2023).
Where a chain is given by its changes, count along the chain named. Names and notes keep the numbering of the source. Values joined by “and” are separate entries in the source; they are usually repeats but may differ in a detail not shown here. Equal values may be shown once.

How the values were obtained:
canine FcRn [1] = molecular target: T1, canine FcRn (canine); assay: SPR, pH 5.5, FcRn 400 nM over captured Fc
T1 construct: Injected in solution as SPR analyte

canine FcRn [2] = molecular target: T1, canine FcRn; assay: SPR, pH 5.5, FcRn 200 nM over captured Fc
canine FcRn [3] = molecular target: T1, canine FcRn; assay: SPR, pH 5.5, FcRn 200 nM over captured Fc; remark: listed apart in the source
canine FcRn [4] = molecular target: T1, canine FcRn; assay: SPR, pH 5.5, FcRn 200 nM over captured Fc; remark: listed apart in the source
canine FcRn [5] = molecular target: T1, canine FcRn; assay: SPR, pH 5.5, FcRn 200 nM over captured Fc; remark: listed apart in the source
canine FcRn [6] = molecular target: T1, canine FcRn; assay: SPR, pH 5.5, FcRn 100-800 nM over captured Fc
canine FcRn [7] = molecular target: T1, canine FcRn; assay: SPR, pH 5.5, FcRn 200 nM over captured Fc; remark: listed apart in the source
canine FcRn [8] = molecular target: T1, canine FcRn; assay: SPR, pH 5.5, FcRn 200 nM over captured Fc; remark: listed apart in the source
canine FcRn [9] = molecular target: T1, canine FcRn; assay: SPR, pH 5.5, FcRn 200 nM over captured Fc; remark: listed apart in the source
canine FcRn [10] = molecular target: T1, canine FcRn; assay: SPR, pH 5.5, FcRn 400 nM over captured Fc; average of the wild type replicates
canine FcRn [11] = molecular target: T1, canine FcRn; assay: SPR, pH 5.5, FcRn 200 nM over captured Fc; remark: listed apart in the source

B1: canine IgG.B Fc variant E380A with SASA tag (Fc fusion)
chain: APEMLGGPSVFIFPPKPKDTLLIARTPEVTCVVVDLDPEDPEVQISWFVDGKQMQTAKTQPREEQFNGTYRVVSVLPIGHQDWLKGKQFTCKVNNKALPSPIERTISKARGQAHQPSVYVLPPSREELSKNTVSLTCLIKDFFPPDIDVAWQSNGQQEPESKYRTTPPQLDEDGSYFLYSKLSVDKSRWQRGDTFICAVMHEALHNHYTQESLSHSPGK
Canine FcRn [1]
  Kd: 618 nM and 747 nM
  koff: 0.369 s⁻¹ and 0.18 s⁻¹
  kon: 598000 M⁻¹ s⁻¹ and 241000 M⁻¹ s⁻¹
Canine FcRn [2]
  Kd: 1320 nM and 1570 nM
  koff: 0.223 s⁻¹ and 0.239 s⁻¹
  kon: 168000 M⁻¹ s⁻¹ and 152000 M⁻¹ s⁻¹

B2: canine IgG.B Fc variant L252M with SASA tag (Fc fusion)
chain: B1 chain with L22M, A150E
Canine FcRn [3]
  Kd: 869 nM and 774 nM
  koff: 0.168 s⁻¹ and 0.169 s⁻¹
  kon: 193000 M⁻¹ s⁻¹ and 218000 M⁻¹ s⁻¹

B3: canine IgG.B Fc variant D378V with SASA tag (Fc fusion)
chain: B1 chain with D148V, A150E
Canine FcRn [4]
  Kd: 693 nM and 873 nM
  koff: 0.159 s⁻¹ and 0.16 s⁻¹
  kon: 229000 M⁻¹ s⁻¹ and 184000 M⁻¹ s⁻¹

B4: canine IgG.B Fc variant N434R with SASA tag (Fc fusion)
chain: B1 chain with A150E, N206R
Canine FcRn [5]
  Kd: 107 nM and 159 nM
  koff: 0.0524 s⁻¹ and 0.0633 s⁻¹
  kon: 488000 M⁻¹ s⁻¹ and 399000 M⁻¹ s⁻¹
Canine FcRn [6]
  Kd: 182 nM
  koff: 0.0801 s⁻¹
  kon: 440000 M⁻¹ s⁻¹

B5: canine IgG.B Fc variant G309P with SASA tag (Fc fusion)
chain: B1 chain with G79P, A150E
Canine FcRn [7]
  Kd: 635 nM and 434 nM and 637 nM and 718 nM
  koff: 0.239 s⁻¹ and 0.242 s⁻¹ and 0.132 s⁻¹ and 0.145 s⁻¹
  kon: 377000 M⁻¹ s⁻¹ and 558000 M⁻¹ s⁻¹ and 207000 M⁻¹ s⁻¹ and 202000 M⁻¹ s⁻¹

B6: canine IgG.B Fc variant L252Y with SASA tag (Fc fusion)
chain: B1 chain with L22Y, A150E
Canine FcRn [6]
  Kd: 173 nM
  koff: 0.0476 s⁻¹
  kon: 275000 M⁻¹ s⁻¹
Canine FcRn [3]
  Kd: 98.7 nM and 114 nM
  koff: 0.0397 s⁻¹ and 0.041 s⁻¹
  kon: 402000 M⁻¹ s⁻¹ and 358000 M⁻¹ s⁻¹

B7: canine IgG.B Fc variant Q311V with SASA tag (Fc fusion)
chain: B1 chain with Q81V, A150E
Canine FcRn [8]
  Kd: 372 nM and 439 nM
  koff: 0.566 s⁻¹ and 0.696 s⁻¹
  kon: 1.52e+06 M⁻¹ s⁻¹ and 1.59e+06 M⁻¹ s⁻¹

B8: wild-type canine IgG.B Fc (CH2 and CH3 domains) with upstream SASA tag (Fc fusion)
chain: B1 chain with A150E
Canine FcRn [5]
  Kd: 955 nM and 1310 nM
  koff: 0.181 s⁻¹ and 0.209 s⁻¹
  kon: 190000 M⁻¹ s⁻¹ and 159000 M⁻¹ s⁻¹
Canine FcRn [2]
  Kd: 1560 nM and 754 nM
  koff: 0.179 s⁻¹ and 0.182 s⁻¹
  kon: 115000 M⁻¹ s⁻¹ and 242000 M⁻¹ s⁻¹
Canine FcRn [9]
  Kd: 8990 nM and 3110 nM
  koff: 0.347 s⁻¹ and 0.354 s⁻¹
  kon: 38700 M⁻¹ s⁻¹ and 114000 M⁻¹ s⁻¹
Canine FcRn [4]
  Kd: 502 nM and 784 nM
  koff: 0.169 s⁻¹ and 0.207 s⁻¹
  kon: 336000 M⁻¹ s⁻¹ and 264000 M⁻¹ s⁻¹
Canine FcRn [10]
  Kd: 566 nM
Canine FcRn [8]
  Kd: 639 nM and 692 nM
  koff: 0.17 s⁻¹ and 0.171 s⁻¹
  kon: 267000 M⁻¹ s⁻¹ and 247000 M⁻¹ s⁻¹
Canine FcRn [6]
  Kd: 3150 nM
  koff: 0.527 s⁻¹
  kon: 168000 M⁻¹ s⁻¹
Canine FcRn [7]
  Kd: 884 nM and 862 nM
  koff: 0.21 s⁻¹ and 0.218 s⁻¹
  kon: 237000 M⁻¹ s⁻¹ and 253000 M⁻¹ s⁻¹
Canine FcRn [3]
  Kd: 1710 nM and 2660 nM
  koff: 0.288 s⁻¹ and 0.326 s⁻¹
  kon: 168000 M⁻¹ s⁻¹ and 123000 M⁻¹ s⁻¹
Canine FcRn [11]
  Kd: 2050 nM and 2990 nM
  koff: 0.31 s⁻¹ and 0.315 s⁻¹
  kon: 151000 M⁻¹ s⁻¹ and 105000 M⁻¹ s⁻¹

B9: canine IgG.B Fc variant A254T with SASA tag (Fc fusion)
chain: B1 chain with A24T, A150E
Canine FcRn [11]
  Kd: 2290 nM and 1340 nM
  koff: 0.375 s⁻¹ and 0.433 s⁻¹
  kon: 163000 M⁻¹ s⁻¹ and 323000 M⁻¹ s⁻¹

B10: canine IgG.B Fc variant T250E with SASA tag (Fc fusion)
chain: B1 chain with T20E, A150E
Canine FcRn [9]
  Kd: 2480 nM and 1660 nM
  koff: 0.284 s⁻¹ and 0.287 s⁻¹
  kon: 114000 M⁻¹ s⁻¹ and 172000 M⁻¹ s⁻¹

B11: canine IgG.B Fc variant T250Q with SASA tag (Fc fusion)
chain: B1 chain with T20Q, A150E
Canine FcRn [9]
  Kd: 2590 nM and 2840 nM
  koff: 0.258 s⁻¹ and 0.268 s⁻¹
  kon: 99600 M⁻¹ s⁻¹ and 94300 M⁻¹ s⁻¹
